Assay results: publication PMC6408234

Legend:
[1] = target: 9C-HLA-A2 (NY-ESO-1 157-165 peptide … on HLA-A*02:01 with human β2m); test: biomembrane force probe
[2] = target: C-C-locked R4-MHC (disulfide-bond-locked MHC mutant) (mouse | human); test: biomembrane force probe

peak bond lifetime (at ~10 pN force) [1] [s]	fold reduction of the optimal bond lifetime against R4-MHC [2] [fold]	Substance
1		1G4 TCR
	2	2C TCR (wild type)
